Measured values: the nanobody polyreactivity screen of Harvey et al. (2022)

Assay: yeast display, Sf9 membrane polyspecificity reagent, FACS + sequencing; frameworks hold sequencing errors
Outline: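 Nanobodies from a synthetic yeast display library (Saccharomyces cerevisiae BJ5465), induced 36–48 hours with galactose, were stained 1 hour at 4 °C with 10% biotinylated, detergent-solubilized Sf9 membrane reagent, enriched on streptavidin microbeads, then FACS-sorted. Anti-HA (expression) and streptavidin (reagent binding) fluorescence set low and high (top ~1%) gates. Polyreactivity labels come from the gate of origin. Genes were colony-PCR amplified, MiSeq 2 × 250 sequenced and filtered by CDR length.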

Sequence	polyreactivity (PSR sort gate)
QVQLVESGGGLVQAGGSLRLSCAASGFTFRRYAMGWYRQAPGKERELVAAISRGSSTYYADSVKGRFTISRDNAKNTVYLQMNSLKPEDTAVYYCAADWEQLRGTMDYWGQGTQVTVSS	high polyreactivity
QVQLVESGGGLVQAGGSLRLSCAASGFTFRRYAMGWYRQAPGKERELVAAISTSGGRTYYADSVKGRFTISRDYAKITVYLQMNSLKPEDSAVYDCNAAGGYRTSPSDYWGQGTQVTVSS	high polyreactivity
QVQLVESGGGLVQAGGSLRLSCAASGFTFRSNAMGWYRQAPGKERELVAAISYSGDSTYYADSVKGRFTISRDTAKNTVYLQMNSLKPEDTAVYYCAADGYDQWGRVGVYLIWTSYDYWGQGTQVTVSS	high polyreactivity
QVQLVESGGGLVQAGGSLRLSCAASGFTFRSNAMGWYRQAPGKERELVAAISYSGGDTYYADSVKGRFTISRDNAKNTVFLQMNSLKPEDTAVYYCAADDPASPLGEYWGQGTQVTVSS	low polyreactivity
QVQLVESGGGLVQAGGSLRLSCAASGFTFRSNVMGWYRQAPRKERELVAAIRWSGGSTYYADSVKGRFTISRDNAMNTVYLQMNSLKPDDTAVYYCNARIYRSGYKFNYWGQGTQVTVSS	high polyreactivity
QVQLVESGGGLVQAGGSLRLSCAASGFTFRTYAMGWYRQAPGKERELVAGISQGGGSTYYADSVKGRFTISRDNAKNTVYLQMKSLKTEVTAVYYCAKARNSNARFGYWGQGTQVTVSS	high polyreactivity
QVQLVESGGGLVQAGGSLRLSCAASGFTFRVNAMGWYRQAPGKERELVARISSSGGITYYADSVKGRFTISRDNAKNTVYLQMNSLKPEDTAVYYCAKEVYSGYSTRARSRYYEYYYWGQGTQVTVSS	high polyreactivity
QVQLVESGGGLVQAGGSLRLSCAASGFTFRVNAMGWYRQAPGKESELVAAISSGGGITYYADSVKGRFTISRDNAKNTVYLQMNSLKPEDTAVYYCAARENRYLERDYWGQGTQVTVSS	low polyreactivity
QVQLVESGGGLVQAGGSLRLSCAASGFTFRVYAMGWYRHAPGKERELVAAITKRGGSTYYADSVKGRFTISRDNAKNTVYLQMNSLKPEDTAVYYCAAVNVRHFSYWGQGTQVTVSS	high polyreactivity
QVQLVESGGGLVQAGGSLRLSCAASGFTFRVYAMGWYRQAPGKERELVAAISKSGGSTYYADSVKGRFTISRDNAKNTVYLQMNSLKPEDTAVYYCAKVSQVRGFYYWGQGTQVTVSS	high polyreactivity
QVQLVESGGGLVQAGGSLRLSCAASGFTFRVYAMGWYRQAPGKERELVAAISSGGSTNYADSVKGRFTISRDNAKNTVYLQMNSLKPEDTAVYYCAARTYRWYGPGSYGYWGQGTQVTVSS	high polyreactivity
QVQLVESGGGLVQAGGSLRLSCAASGFTFRVYAMGWYRQAPGKERELVAAITKRGGSTYYADSVRGRFTISRDNAKNTVYLQMNSLKPEDTAVYYCATENTPHYASHGYWGQGTQVTVSS	high polyreactivity
QVQLVESGGGLVQAGGSLRLSCAASGFTFRWYAMGWYRQAPGKERELVAAITYRGGRTYYADSVKGRFTISRDNAKNTVYLQMNSLKPEDTAVYYCAAKLSLNGRYDYWGQGTQVNVSS	high polyreactivity
QVQLVESGGGLVQAGGSLRLSCAASGFTFRWYAMRWYRQAPGKERELVADITRSGDTNYAYSVKGRFTISRDNAKNTVYLQMKSQKPEDTAVYSCAKDWAYRRHWVGFYYWGQGTQVTVSA	low polyreactivity
QVQLVESGGGLVQAGGSLRLSCAASGFTFRWYTMGWYRQAPGKERELVASIDWSGGSTYYADSVKGRFTITRDNAKNTVYLQMNSLKAEDTAVYYCNAGSDIFWSASTYGYWGQGTQVTVSS	high polyreactivity
QVQLVESGGGLVQAGGSLRLSCAASGFTFRYNAMGWYRQAPGKERELVAAISRSGGRTYYADSVKGRFTISRDNAKNTVYLQMNSLKPEDTAVYYCAAVAARITGYGYWGQGTQVTVSS	high polyreactivity
QVQLVESGGGLVQAGGSLRLSCAASGFTFRYYAMGWYRQAPGKERELVAAIRRGGTTNYADSVKGRFTISRDNAKNTVYLQMKSLKPEDTAVYYCNAGRGYSVWASIYNSRPFDYWGQGTQVTVSS	high polyreactivity
QVQLVESGGGLVQAGGSLRLSCAASGFTFRYYAMGWYRQAPGKERELVAAISSGGRTNYADSVKGRFTISRDNAKNTVYLQMNSLKPEDTAVYYCAKAQYYYIGDYDYWGQGTQVTVSS	high polyreactivity
QVQLVESGGGLVQAGGSLRLSCAASGFTFRYYAMGWYRQAPGKERELVAGISWRGGSTNYADSVKGRFTISRDNAKNTVYLQMNSLKPEDTAVYYCNAVSYSFPIHRVRPTWYDYWGQGTQVTVSS	high polyreactivity
QVQLVESGGGLVQAGGSLRLSCAASGFTFRYYAMGWYRQAPGKVRELVASITGGGRTYYADSVKGRFTISRDNAKNTVYLQMNSLKPEDTAVYYCATLVAYRLGSGYDSWGQGTQVTVSS	high polyreactivity
QVQLVESGGGLVQAGGSLRLSCAASGFTFRYYSMGWYRQAPGKERELVAAISSGGSTKYADSVKGRFTISRDNAKNTVYLQMNSLKPEDTAVYYCAARVVDGAQPRYVVIINTRYYWGQGTQVTVSS	high polyreactivity
QVQLVESGGGLVQAGGSLRLSCAASGFTFRYYVMGWYRQAPGKEGELVAAISWSGGTTYYADSVKGRFTISRDNAKNTVYLQMNSLKPEDTAVYYCAADVYLNRRQRMYFWGQGSQVTVSS	high polyreactivity

Sequence	polyreactivity (PSR sort gate)
QVQLVESGGGLVQAGGSLRLSCAASGFTFSAYAMGWYRQAPGKERELVAAIRSSDITYYADSVKGRFTISRDNAKNTVYLQMNSLKPEDTAVYYCAADLGDYYLYYDYEYWGQGTQVTVSS	high polyreactivity
QVQLVESGGGLVQAGGSLRLSCAASGFTFSAYAMGWYRQAPGKERELVAAISRRGGSTYYADSVKGRFTISRDTAKNTVYLQMNSVKPEDTAVYYCATDYPPGYDYWGQGTQVSVSS	high polyreactivity
QVQLVESGGGLVQAGGSLRLSCAASGFTFSAYAMGWYRQAPGKERELVAAITLRGGSTYYADSVKGRFTISRDNAKNTVYLQMNSLKPEDTAVYYCNADRWTRTEEEVDYWGQGTQVTVSS	low polyreactivity
QVQLVESGGGLVQAGGSLRLSCAASGFTFSAYTMGWYRKAPGKERELVAAISWGGGSTFYADSVKGRFTISRDNAKNTVYLQMNSLKPEDTAVYYCNKQYVHPYDYWGQGTQVTLSS	high polyreactivity
QVQLVESGGGLVQAGGSLRLSCAASGFTFSDYVMGWYRQAPGKERELVAVITSGSSTYYADSVKGRFTISRDNAKNTVYLQMNSLKPEDTAVYYCNADPDDGYFSDFDYWGQGTQVTVSS	low polyreactivity
QVQLVESGGGLVQAGGSLRLSCAASGFTFSEYVMGWYRQAPGKERELVAVITSGSSTYYADSVKGRFTISRDNAKNTVYLQMNSLTPEDTAVYYCAAESYFFSPRTREKFDYWGQGTQVTVSA	low polyreactivity
QVQLVESGGGLVQAGGSLRLSCAASGFTFSFYAIGLYRQATVKEREVVAAISWSGGSTYYADSVKGRFTISRDNAKNTVYLQMNSLKPEDTAVYFCAAKLLYGGRNGYWGQGTQVTVSS	high polyreactivity
QVQLVESGGGLVQAGGSLRLSCAASGFTFSFYAMGWYRQAPGKERELVAAIDRSGGSTYYADSVKGRFTISRDNAKNTVYLQMNSLKPEDTAVYYCAATVFYGYYYWGQGTQVTVSS	high polyreactivity
QVQLVESGGGLVQAGGSLRLSCAASGFTFSFYAMGWYRQAPGKERELVAAITSRGTSTYYADSVKGRFTISRDNAKNTVYLQMNSLKPEDTEVYYCAKLLPRGQWPYDYWGQGTQVTVSS	high polyreactivity
QVQLVESGGGLVQAGGSLRLSCAASGFTFSHNAMGWSRQAPGKERELVAGINGSGGSTYYADSVKGRFTISRDNAKNTFYLQMNSLKPEDTAVYYCSKDGSNRLALPAWDYNYWGQGTQVTVSS	low polyreactivity
QVQLVESGGGLVQAGGSLRLSCAASGFTFSHYAMGLSRQAPGKERELVAAITWSGGSTYYADSVKGRFTISRDNAKNTVYLQMKSLKPEDTAVYYCIALVIARNIEMDYWGQGTQVTVSS	high polyreactivity
QVQLVESGGGLVQAGGSLRLSCAASGFTFSHYAMGWYRQAPGKEMELVAAITWSGGSTYYADSVKGRFTISRDNAKNTVYLQMNSLKPEDTAVYYCAAESYLDGGDYWGQGTQVTVSS	high polyreactivity
QVQLVESGGGLVQAGGSLRLSCAASGFTFSKYAMGLYRQAPGKERELVAAITRRGSSTYYADSVKGRFTLSRDNAKNTVYLQMNSLKPEDTAVYYCNAPRPNGYLGEDNYWGQGTKVTVSS	high polyreactivity
QVQLVESGGGLVQAGGSLRLSCAASGFTFSKYAMGWYRQAPGKERELVAAISRSAGSTYYADSVKGRFTISRDNAKNTVYLQMNSLKPEDNAVYYCARDNPRSPSGYNYWGQGSQVTVSS	high polyreactivity
QVQLVESGGGLVQAGGSLRLSCAASGFTFSKYAMGWYRQAPGKERELVAAITRRGSSTYYADSVKGRFTISRDNAKNTVYLQMNSLKPEDTAVYYCNAPRPNGYLGEDNYWGQGTQVTVSS	high polyreactivity
QVQLVESGGGLVQAGGSLRLSCAASGFTFSKYAMGWYRQAPGKERELVASIDDGGSTNYADSVKGRFTISRDNAKNTVYLQKNSLKPEDTAVYYCNASYPTGYWYYVIVQYDYWGQGTQVTVSS	low polyreactivity
QVQLVESGGGLVQAGGSLRLSCAASGFTFSKYAMGWYRQAPVKERELVATITRGGNTYYADSVKGRFTISRDNAKNTVYLQMNSLKPEDTAVYYCNTGRRNRLYDYDYWGQVTQVTVSS	high polyreactivity
QVQLVESGGGLVQAGGSLRLSCAASGFTFSKYTMGWYRQAPGKERELVAAITSGGSTYYADSVKGRFTISRDNAKNTVYLQMNSLKPEDTAVYYCNAESRHVFEDEYWGQGTQVTVSS	low polyreactivity
QVQLVESGGGLVQAGGSLRLSCAASGFTFSLYGMGWYRQAPGKERELVAAIRSGGSRNYADSVKGRFTISRDNAKNTVYLQMNSLKPEDTAVYYCATDIHSVHNNRDKHDYDYWGQGTQVTVSS	low polyreactivity
QVQLVESGGGLVQAGGSLRLSCAASGFTFSLYGMGWYRQAPGKERELVAAIRSGGSTNYADSVKGRFTISRDNAKNTVYLQMNSLKPEDTAVYYCATDIHSVHNNRDKHDYDYWGQGTQVTVSS	low polyreactivity
QVQLVESGGGLVQAGGSLRLSCAASGFTFSLYTKGWYRQATGKERELVADISDGGITNYADSVKGRFTISRDNAKNTVYLQMHSLKPEDTAVYYCAADYQFLFFWNLFYEDYDYWGQGTQVTVSS	high polyreactivity
